Measured values: publication PMC10168401 (bioRxiv, 2023)

Molecular target: SARS-CoV-2 spike receptor-binding domain (RBD), wild type, residues 333-529 (SARS-CoV-2 Wuhan-Hu-1 (wild type), UniProt P0DTC2)
Assay: crystal structure

B1: CC25.56 Fab with the […] elbow variant (for crystallization) (Fab, V domains shown)
VH: EVQLVQSGAEVKKPGESLKISCKGSGYTFTRHWIGWVRQMPGKGLEWMGVIYPGDSDTRYSPSFQGQVTVSADKSISTAYLQWSSLKASDTAMYFCARGGIAVASGAFDIWGQGTMVTVFN
VL: QSALTQPPSVSVAPGKTARITCGGNNIGSKSVHWYQQKAGQAPVVVIYYPSDRPSGIPERFSGSNSENTATLTISGVEAGDEADYYCQLWDTNSDHWVFGGGTKLTVL
binding result: binds

B2: CC25.43 Fab with the […] elbow mutation and a shortened kappa FG loop (for crystallization) (Fab, V domains shown)
VH: EVQLVESGGGLVQPGGSLKLSCSASGFTLSDSAMHWVRQASGKGLEWVGRISSNVNNDATVYAASLKGRFTISRDESKNMAYLQMNSLKNEDTAVYYCTVVPVLEYYQYGMDVWGQGTTVTIFN
VL: DIQLTQSPSTLSASVGDRVIITCRASQSISTWLAWYQQRPGQAPKLLIYKASILQSGVPPRFSGSGSGTDFTLTISRLQPDDFATYYCQQYDSDSQPLTFGGGTKLEIK
binding result: binds

B3: CC25.4 Fab with the VSRRLP elbow variant (for crystallization) (Fab, V domains shown)
VH: QVQLVQSGAEVKKPGASVKVSCKASGYTFTDYFLHWVRQAPGQGLEWMGWINPDSGGTNYAQRFQGRVTMTRDTSISTAYMEVSRLRSDDTAVYYCARDNERYQMQNYYHYYGMDVWGQGTTVTVVS
VL: not shown
binding result: binds
